{"source": "paper PMC11879436", "about": "“VvARF19 represses VvLBD13-mediated cell wall degradation to delay softening of grape berries”", "binders": {"B1": {"name": "VvXTH10 promoter probe (dsDNA)", "DNA 1": "TCGAGTGTTGCGGCTTTGAAAAATA", "DNA 2": "TATTTTTCAAAGCCGCAACACTCGA"}, "B2": {"name": "VvEXPLA1 promoter probe (dsDNA)", "DNA 1": "AATAGAGAAGCCCACACGTGAGCAA", "DNA 2": "TTGCTCACGTGTGGGCTTCTCTATT"}}, "molecular_target": "T1, VvLBD13 (Vitis vinifera cv. Shine Muscat, UniProt D7SJL6 27-229)", "T1 sequence": "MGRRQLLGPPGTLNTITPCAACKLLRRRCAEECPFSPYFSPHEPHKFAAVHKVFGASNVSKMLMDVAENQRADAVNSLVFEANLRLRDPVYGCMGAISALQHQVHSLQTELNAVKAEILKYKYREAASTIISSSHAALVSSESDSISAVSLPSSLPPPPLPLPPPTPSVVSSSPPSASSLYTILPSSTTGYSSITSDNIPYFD", "test": "EMSA; with unlabeled cold probe competition; EMSA kit (Thermo 20148), 25 C, 30 min; buffer, salt and pH not stated", "conditions": "protein: recombinant; tags: His (pET-32a(+)); chain copies: 2; label: 5' biotin; blunt"}
{"binder": "B1", "values": [{"measurement": "binding result", "result": "binds"}]}
{"binder": "B2", "values": [{"measurement": "binding result", "result": "binds"}]}
